The target of this assay is HLA-A2 molecules on T2 cells (human). The assay can be described thus: T2 cell-binding assay, flow cytometry of HLA-A2 on T2 cells, peptide 25 µg/mL; negative control. As to conditions: remark: other sources report otherwise.

HLFGYSWYK [CAP-7 peptide] yielded a T2 Binding (mean fluorescence intensity) of 88 MFI.

(Values after US20140287029A1.)
